# Entries after “also recorded” stand apart in the source; their conditions may differ.
# B1: MG12-5: Knob/hole Fc heterodimer: GLP-1/Exendin 4 hybrid (SEQ 5), unmodified linker, first fusion protein SEQ 28; GLP-2 (SEQ 17), second fusion protein SEQ 34 (protein)
# chain 1: HGEGTFTSDVSSYLEGQAAKEFIAWLVKGGPSSGAPPPSGGGGSGGGGSGGGGSEKEKEEQEERTHTCPPCPSHTQPLGVFLFPPKPKDQLMISRTPEVTCVVVDVSQEDPEVQFNWYVDGVEVHNAKTKPREEQFNSTYRVVSVLTVLHQDWLNGKEYKCKVSNKGLPSSIEKTISKAKGQPREPQVYTLPPCQEEMTKNQVSLWCLVKGFYPSDIAVEWESNGQPENNYKTTPPVLDSDGSFFLYSRLTVDKSRWQEGNVFSCSVLHEALHNHYTQKSLSLSLGK
# chain 2: HGDGSFSDEMNTILDNLAARDFINWLIQTKITDGGGGSGGGGSGGGGSEKEKEEQEERTHTCPPCPSHTQPLGVFLFPPKPKDQLMISRTPEVTCVVVDVSQEDPEVQFNWYVDGVEVHNAKTKPREEQFNSTYRVVSVLTVLHQDWLNGKEYKCKVSNKGLPSSIEKTISKAKGQPREPQVCTLPPSQEEMTKNQVSLSCAVKGFYPSDIAVEWESNGQPENNYKTTPPVLDSDGSFFLVSRLTVDKSRWQEGNVFSCSVLHEALHNHYTQKSLSLSLGK
# What was measured:
# [1] = In vivo pharmacokinetics profile after subcutaneous administration (GLP-1-Fc ELISA and GLP-2-Fc ELISA); set-up: species or system male SD (Sprague Dawley) rats; settings: for AUClast / Cmax / Half-life / Tmax: 1 mg/kg SC
# Procedure: First, each protein was administered to 3 male SD (Sprague Dawley) rats per group at a dose of 1 mg/kg by subcutaneous (SC) route. Before injection and after 0.5, 1, 5, 10, 24, 48, 72, 120, and 168 hours after the injection, blood was collected and stored at room temperature for 30 minutes to aggregate. After centrifuging the aggregated blood at 3,000 rpm for 10 minutes, serum of each sample was collected and stored in a cryogenic freezer. Analyses were performed by an assay designed to specifically detect the GLP-1 site and Fc in the administered protein (GLP-1-Fc ELISA) and an assay designed to specifically detect the GLP-2 site and Fc in the administered protein (GLP-2-Fc ELISA). Specifically, a method of loading a biological sample on a plate coated with an antibody that binds to mouse-derived human immunoglobulin G4 (IgG4) to detect the target protein using a biotinylated anti-GLP-1 antibody (GLP-1-Fc ELISA), and a method of loading a biological sample on a plate coated with a monoclonal antibody that specifically reacts with GLP-2, to detect the target protein using a secondary antibody having HRP conjugated to mouse-derived human immunoglobulin G4 (IgG4) (GLP-2-Fc ELISA) were used. The obtained and prepared serum samples were loaded with appropriate dilutions to be analyzed at a position on a straight line of the standard curve.
# B6 normal mice [2] = assay: Small intestine changes and nutrient absorption changes (GLP-2-2G, GLP-2-Fc homodimer, MG12-5); type: in vivo
# Procedure: In order to observe changes in the small intestine and nutrient absorption capacity following substance administration, an experiment was conducted in B6 normal mice. PBS and GLP-2-2G were administered twice a day, and GLP-2-Fc homodimer and MG12-5 were administered once every three days for 2 weeks. For the GLP-2-Fc homodimer and MG12-5 groups, PBS was administered twice a day, as was in the other administration groups, during the period when no drug was administered. Body weight and dietary intake were monitored at 3-day intervals, and feces were collected before administration, on days 5-6 after administration, and on days 11-12 after administration, and calorimetry was performed using a bomb calorimeter, and also, feed ingested during this period was also subjected to calorimetry through the same analysis. The energy absorption rate was defined as a value obtained by subtracting the calorific value of feces from the caloric value of ingested feed. On day 14 following drug administration, the experimental animals were sacrificed and the small intestine (pylorus ileum) was weighed.
# Balb/c-nude mice = assay: PET-MRI tissue distribution of Zr89-labelled proteins; type: in vivo; settings: Zr89 label, SC
# Text: Next, the present inventors performed an experiment in Balb/c-nude mice in order to observe the distribution in each tissue organ following the administration of a substance. Zr^89 was used as a radiotracer for tracking the distribution after administration of each substance. Each substance to be administered was labeled with Zr^89 as a reaction condition and a chelator selected through a preliminary test. The labeled Zr^89-protein was purified using a PD-10 column, and Zr^89 labeling efficiency and purity were confirmed using Radio TLC and SEC-HPLC. The labeling efficiency of the Zr^89-protein of 90% or more and the purity of 80% or more were determined to be appropriate, and the labeled protein was administered subcutaneously at 0.2 mCi/0.2 cc. Each administration substance was administered to three animals and static images for 20 minutes were obtained using PET-MRI at 1 hour, 6 hours, 24 hours, 48 hours, and 168 hours after injection. Through image analysis, the distribution of drugs as a function of time in the liver, small intestine, and large intestine was expressed as SUV (Standardized Uptake Value) and comparatively analyzed.
# B6 normal mice [3] = assay: MG12 vs. GLP-1 and GLP-2 combo: body weight and small intestine changes; type: in vivo; settings: 12 days SC
# Procedure: In particular, in order to observe changes in body weight and the small intestine following the substance administration, an experiment was conducted in B6 normal mice. […] After starting drug administration twice a week during the test period, feed intake was measured and expressed as cumulative feed intake, and pre-autopsy body weight was measured to calculate the body weight vs. feed intake. After the autopsy, the weight of the small intestine, and mucosal depth and villus height of the duodenum and the jejunum were measured. More specifically, after the autopsy, the entire gastrointestinal tract of the mouse was separated, the mesentery and the pancreas were excised, and the area where the ileum and the cecum meet was cut to separate the small intestine and the large intestine.
# [4] = system: C57BL/6J male mice on CD-HFD; assay: Choline-deficient high-fat diet (CD-HFD) metabolic syndrome model; type: in vivo
# Text: To this end, in particular, with respect to experimental animals induced with fatty liver and steatohepatitis through high-fat diet, as shown in FIG. 13a and Table 8, the present inventors performed a choline-deficient high-fat diet ([…]) for 12 weeks using 8-week-old C57BL/6J male mice, and then 20 nmol/kg of MG12-5, MG12-8, and each of 10 nmol/kg of GLP-1 and GLP-2 combination (combo) were administrated twice subcutaneously twice to experimental animals respectively, along with a CD-HFD diet for 4 weeks, and various serological and histological analyses were performed.
# First, the present inventors recorded changes in body weight and food intake of experimental animals during the experiment period.
# As described above, after 16 weeks on CD-HFD, mice treated with drugs (MG12-5, MG12-8, and GLP-1 and GLP-2 combo) twice a week for 4 weeks, after food restriction 12 hours, were intraperitoneally administered with glucose at a dose of 2 g/kg, and changes in blood glucose level were measured at a time interval for a total of 3 hours. […] FIG. 14b is a graph showing the area under the curve related to changes in blood glucose level.
# The present inventors sacrificed and extracted liver tissues from a mouse having completed the drug administration experiment as described above, and captured photographs thereof to examine changes in the size and color of the liver tissues, and measured the weight of the extracted liver tissues as well as ALT blood level, which is a measure of hepatotoxicity level.
# [5] = 20 nmol/kg SC, 4 weeks with CD-HFD
# [6] = excised liver at end of experiment
molecule,measurement,setting,value
B1,"terminal half-life, rank among MG12-1, 3, 4 and 5",[1]; GLP-2-Fc ELISA,shortest half-life
same,"Cmax, rank among MG12-1, 3, 4 and 5",[1]; both ELISA methods,highest value
same,AUClast,"[1]; rat, GLP-1-Fc ELISA (Table 5)",26.0596 ± 3.0285 µg·h/mL
same,Cmax,"[1]; rat, GLP-1-Fc ELISA (Table 5)",1036.2 ± 59.5 ng/mL
same,Half-life,"[1]; rat, GLP-1-Fc ELISA (Table 5)",18.4 ± 6.2 h
same,Tmax,"[1]; rat, GLP-1-Fc ELISA (Table 5)",10 h
same,AUClast,"[1]; rat, GLP-2-Fc ELISA (Table 6)",188.7416 ± 7.8705 µg·h/mL
same,Cmax,"[1]; rat, GLP-2-Fc ELISA (Table 6)",3201.3 ± 95.6 ng/mL
same,Half-life,"[1]; rat, GLP-2-Fc ELISA (Table 6)",30.6 ± 2.1 h
same,Tmax,"[1]; rat, GLP-2-Fc ELISA (Table 6)",24.0 ± 0.0 h
same,"AUClast, rank among MG12-1, 3, 4 and 5","[1]; rat, SC",highest
same,body weight,B6 normal mice [2]; 2 weeks dosing,an increase significant compared to the negative control group; also recorded: statistically significant body weight increase compared to other drug administered groups
same,energy absorption rate,"B6 normal mice [2]; Week 1, after the second dose",statistically significant increase compared to the vehicle-administered group
same,energy absorption rate,"B6 normal mice [2]; Week 2, after the fourth dose",an increase even more significant than GLP-2-Fc homo
same,small intestine weight,"B6 normal mice [2]; day 14, 2 weeks dosing",most notable increase in the small intestine weight; also recorded: statistically significant increase compared to the other two drug administered group; also recorded: superior effect of increasing small intestine weight to GLP-2-2G and GLP-2-Fc homodimer
same,distribution to the liver (SUV),Balb/c-nude mice,reduced or showed no difference compared to Fc
same,distribution to the small intestine and large intestine (SUV),Balb/c-nude mice,significantly high compared to that of GLP-1-Fc homodimer and GLP-2-Fc homodimer
same,body weight increase vs. feed intake,B6 normal mice [3]; normalized to cumulative feed intake,statistically significant body weight increase compared to the co-administered group
same,small intestine weight,"B6 normal mice [3]; Ex-4 10 nmol/kg, others 33.3 nmol/kg",statistically significant increase in the small intestine compared to the co-administered group
same,body weight (relative change),[4]; [5],greater relative body weight reduction effect
same,feed intake,[4]; [5],lower feed intake
same,blood ALT level,[4]; after 16 weeks of CD-HFD diet,decrease in ALT level to a level similar to that of the normal diet group
same,liver color,[4]; [6],liver color similar to that of the normal diet group
same,liver weight,[4]; [6],reduced
same,"blood glucose level, intraperitoneal glucose tolerance test","[4]; glucose 2 g/kg i.p. after 12 hours food restriction, 3 hours",statistically significant decrease in blood glucose level
same,area under the curve of the change in blood glucose level,[4]; intraperitoneal glucose tolerance test,decreased two times or more
